Positions count from the first letter of the chain named. Primed or numbered codes have the meaning given here. No end group written: not given here. Biotin′ = biotin label at the C-terminus
T1: PAAPSSWGPRPRK-Biotin (human)
T1 construct: Overlapping peptide of the outer loop of human LAG-3; also called LAG-3 Extra cyclic peptide
T1 peptide: PAAPSSWGPRPRK-{Biotin′}

T2: GPPAAAPGHPLAPGPHPAAPSSWGPRPRRYK-biotin (full length of the outer loop) (human, biotin coupled to the C-terminus (K-biotin))
T2 construct: Printed over two rows (r36 and r37; again r54 and r55); also called LAG-3 Extra cyclic peptide
T2 peptide: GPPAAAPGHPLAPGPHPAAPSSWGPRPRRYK

T3: SWGPRPRRYTVLK-Biotin (human)
T3 construct: Overlapping peptide of the outer loop of human LAG-3; also called LAG-3 Extra cyclic peptide
T3 peptide: SWGPRPRRYTVLK-{Biotin′}

T4: WGPRPRRYTVLSK-Biotin (human)
T4 construct: Overlapping peptide of the outer loop of human LAG-3; also called LAG-3 Extra cyclic peptide
T4 peptide: WGPRPRRYTVLSK-{Biotin′}

T5: PSSWGPRPRRYTK-Biotin (human)
T5 construct: Overlapping peptide of the outer loop of human LAG-3; also called LAG-3 Extra cyclic peptide
T5 peptide: PSSWGPRPRRYTK-{Biotin′}

T6: SSWGPRPRRYTVK-Biotin (human)
T6 construct: Overlapping peptide of the outer loop of human LAG-3; also called LAG-3 Extra cyclic peptide
T6 peptide: SSWGPRPRRYTVK-{Biotin′}

T7: APSSWGPRPRRYK-Biotin (human)
T7 construct: Overlapping peptide of the outer loop of human LAG-3; also called LAG-3 Extra cyclic peptide
T7 peptide: APSSWGPRPRRYK-{Biotin′}

T8: AAPSSWGPRPRRK-Biotin (human)
T8 construct: Overlapping peptide of the outer loop of human LAG-3; also called LAG-3 Extra cyclic peptide
T8 peptide: AAPSSWGPRPRRK-{Biotin′}

T9: human LAG-3 protein with hFc tag (hLAG-3-hFc protein) (human, UniProt P18627 23-450)
T9 construct: also called immunogen 1; LAG-3 extracellular domain protein; not shown: human IgG Fc fragment (hFc) of the pCpC vector
T9 sequence: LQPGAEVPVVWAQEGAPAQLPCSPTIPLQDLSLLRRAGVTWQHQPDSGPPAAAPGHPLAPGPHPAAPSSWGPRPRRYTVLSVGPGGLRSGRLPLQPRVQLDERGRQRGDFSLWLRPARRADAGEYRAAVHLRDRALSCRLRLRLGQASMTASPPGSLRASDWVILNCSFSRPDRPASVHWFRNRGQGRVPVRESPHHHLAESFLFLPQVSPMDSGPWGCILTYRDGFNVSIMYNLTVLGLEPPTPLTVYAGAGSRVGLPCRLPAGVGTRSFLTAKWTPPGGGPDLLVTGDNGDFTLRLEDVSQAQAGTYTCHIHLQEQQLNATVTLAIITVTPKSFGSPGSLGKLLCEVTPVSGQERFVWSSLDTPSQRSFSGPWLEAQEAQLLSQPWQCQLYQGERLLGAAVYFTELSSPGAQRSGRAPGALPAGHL

B1: 405B8H3 (mouse antibody purified from hybridoma) (antibody, V domains shown)
VH: QVQLQQSGAELVRPGASVTLSCKASGYTFTDYEMHWVKQTPVHGLEWIGATDPETGNSAYNQKFKGKAIMTADKSSSTAYMELRSLTSEDSAVYYCISTGWNDWGQGTSLTVSS
VL: DIKMTQSPSSMYASLGERVTITCKASQDINSYLSWFQQKPGKSPKTLIYRADRLLDGVPSRFSGSGSGQDYSLTISSLEYGDMGIYYCLQYDEFPYTFGGGTKLEIK
notes: also called mAb103-405B8H3; 405B81-13
B2: 105F1E10 (LAG-3 mouse-human chimeric antibody) (antibody, V domains shown)
VH: EVQLQQSGPELVKPGASVKMSCRASGYTFTDFKMHWMKQSHGKSLEWIGYIAPNNGGTAYNQKFRGKATLTVNESSNTAYMELRSLTSEDSAVYYCVDWDDVDYWGQGTTLTVSS
VL: B1 VL with P40S, D52N, L55V, G81E, D92V, Y96L, G100A, I106L
B3: 105F1E10 (mouse antibody purified from hybridoma) (antibody, V domains shown)
VH: B2 VH
VL: B1 VL with P40S, D52N, L55V, G81E, D92V, Y96L, G100A, I106L
notes: also called mAb009-105F1E10
B4: 405B8H3 (LAG-3 mouse-human chimeric antibody) (antibody, V domains shown)
VH: B1 VH
VL: B1 VL
notes: also called mouse-human chimeric antibody 405B8H3
B5: 409B11E12 (mouse antibody purified from hybridoma) (antibody, V domains shown)
VH: B1 VH with P41T, G56S, N57Y, M70L, S98A
VL: B1 VL with I2L, D52N, G81E
notes: also called mAb104-409B11E12
B6: 409B11E12 (LAG-3 mouse-human chimeric antibody) (antibody, V domains shown)
VH: B1 VH with P41T, G56S, N57Y, M70L, S98A
VL: B1 VL with I2L, D52N, G81E
B7: 409D4E10 (mouse antibody purified from hybridoma) (antibody, V domains shown)
VH: B1 VH with Y27N, G56D, S58T, M70L, A72T, S98T, T99S
VL: B1 VL with D52N, G81E, D92N
notes: also called mAb112-409D4E10
B8: 409D4E10 (LAG-3 mouse-human chimeric antibody) (antibody, V domains shown)
VH: B1 VH with Y27N, G56D, S58T, M70L, A72T, S98T, T99S
VL: B1 VL with D52N, G81E, D92N
B9: 556F6B8 (mouse antibody purified from hybridoma) (antibody, V domains shown)
VH: RVQLKQSGPGLVQPSQSLSITCTVSGFSLIKYGVHWVRQSPGEGLEWLGVIWRGGITDYNAAFMSRLSITKDNSKSQVFFKMNSLQADDTAIYYCAKWDGPLAMDYWGQGTSVTVSS
VL: DIVMTQSHKFLSTSVGDRVSITCKASQDVGTTVAWYQQKPGQSPKLLIYWASTRHTGVPDRFTGSGSGTDFTLTISNVQSEDLADYFCQQYSSYPYTFGGGTKLEIK
notes: also called mAb123-556F6B8
B10: 556F6B8 (LAG-3 mouse-human chimeric antibody) (antibody, V domains shown)
VH: B9 VH
VL: B9 VL
notes: also called 556F8B8

Tests used:
[1] = molecular target: T1, PAAPSSWGPRPRK-Biotin; test: peptide scanning ELISA, biotin peptide on streptavidin
Method: (§1) Fifteen overlapping peptides including the full length of the outer loop sequence were prepared and biotin was coupled to each C-terminus. Enzyme-linked immunosorbent assay (ELISA) was used to detect the binding of antibodies to these peptides. Streptavidin (sigma, Cat #M5432) was diluted with PBS to a final concentration of 1.0 μg/ml, and then added as 100 μl per well to a 96-well ELISA plate. The plate was sealed with plastic film and incubated overnight at 4° C. The plate was washed 2 times with the plate washing solution (PBS+0.01% Tween20) on the next day, and added with the blocking solution (PBS+0.01% Tween20+1% BSA) and blocked at room temperature for 1-2 hours. The blocking solution was poured off, and biotinylated peptides was added to a final concentration of 1 ug/ml, as 100 ul per well to the 96-well ELISA plate, incubated at 37° C. for 1-2 hours, then washed with plate washing solution (PBS+0.01% Tween20)2-3 times. Then the antibody samples to be tested were incubated as 100 μl per well at 37° C. for 1-2 hours, and then the plate was washed 2-3 times with a plate washing solution (PBS+0.01% Tween20). HRP (horseradish peroxidase) labeled secondary antibody was added, and the plate was incubated at 37° C. for 1-2 hours, and washed 2-3 times with a plate washing solution (PBS+0.01% Tween20). 100 μl of TMB substrate was added to each well. After incubated at room temperature for 15-30 minutes, the plate was added with 100 μl of stop solution (1.0N HCl) to each well.

[2] = molecular target: T2, GPPAAAPGHPLAPGPHPAAPSSWGPRPRRYK-biotin …; test: as above
Method: as §1

[3] = molecular target: T3, SWGPRPRRYTVLK-Biotin; test: as above
Method: as §1

[4] = molecular target: T4, WGPRPRRYTVLSK-Biotin; test: as above
Method: as §1

[5] = molecular target: T5, PSSWGPRPRRYTK-Biotin; test: as above
Method: as §1

[6] = molecular target: T6, SSWGPRPRRYTVK-Biotin; test: as above
Method: as §1

[7] = molecular target: T7, APSSWGPRPRRYK-Biotin; test: as above
Method: as §1

[8] = molecular target: T8, AAPSSWGPRPRRK-Biotin; test: as above
Method: as §1

[9] = molecular target: T9, human LAG-3 protein with hFc tag …; test: FACS, blocks LAG-3-hFc binding to MHC II on Raji; 0.274 nM
Method: The FACS reaction plate incubating the Raji cells was centrifuged to discard the supernatant. The above mixture was added as 100 μl per well to Raji cells and incubated on ice for 1-2 hours. The plate was washed twice with blocking solution (PBS, 2% fetal bovine serum) by centrifugation, added with 100 microliters of fluorescent (Alexa 488)-labeled secondary antibodies per well, and incubated on ice for 1.0 hours. The plate was washed 2-3 times by centrifugation with blocking solution (PBS, 2% fetal bovine serum), added with 100 microliters of PBS per well to suspend cells, and detected using FACS (FACS Calibur, BD) and the results were analyzed. Wherein, the IgG control was murine IgG, and the data in the table is the inhibition rate (%).

[10] = molecular target: T9, human LAG-3 protein with hFc tag …; test: ELISA, hLAG-3-hFc coated; 0.6667 nM
Method: The plate was sealed with plastic film and incubated overnight at 4° C. The plate was washed 2 times with the plate washing solution (PBS+0.01% Tween20) on the next day, and added with the blocking solution (PBS+0.01% Tween20+1% BSA) and blocked at room temperature for 1-2 hours. The blocking solution was poured out, and the plate was added with 50-100 μl of the antibody sample to be tested to each well, incubated at 37° C. for 1-2 hours, and washed 2-3 times with a plate washing solution (PBS+0.01% Tween20). HRP (horseradish peroxidase) labeled secondary antibody was added, and the plate was incubated at 37° C. for 1-2 hours, and washed 2-3 times with a plate washing solution (PBS+0.01% Tween20). 100 μl of TMB substrate was added to each well. After incubated at room temperature for 15-30 minutes, the plate was added with 100 μl of stop solution (1.0N HCl) to each well.

Row | Binder | binding result [1] | binding result [2] | binding result [3] | binding result [4] | binding result [5] | binding result [6] | binding result [7] | binding result [8] | Inhibition rate (%) [9] [%] | OD450 [10] [OD450]
1 | B1 | binds | binds | binds | binds | binds | binds | binds | binds | 2.1 | –
2 | B2 | – | – | – | – | – | – | – | – | – | 3.46
3 | B3 | binds | binds | binds | binds | binds | binds | binds | binds | -8.3 | –
4 | B4 | – | – | – | – | – | – | – | – | – | 3.51
5 | B5 | binds | binds | binds | binds | binds | binds | binds | binds | -3.9 | –
6 | B6 | – | – | – | – | – | – | – | – | – | 3.55
7 | B7 | binds | binds | binds | binds | binds | binds | binds | binds | -7.5 | –
8 | B8 | – | – | – | – | – | – | – | – | – | 3.76
9 | B9 | – | – | – | – | – | – | – | – | 6 | –
10 | B10 | – | – | – | – | – | – | – | – | – | 3.76

Source: patent publication US20210155689A1 (SHANGHAI PHARMAEXPLORER, published 2021)
